Data as given in patent US20180193430, “COMPOSITIONS AND METHODS TO INHIBIT VIRAL REPLICATION” (published 2018).

Legend:
RIG-I wild-type [1] = target: T1, RIG-I wild-type (Homo sapiens, UniProt O95786 SEQ:1-925); experiment: EMSA; two RIG-I:RNA complexes with increasing RIG-I; 20 mM Tris-HCl pH 8.0, 1.5 mM MgCl2, 1.5 mM DTT, room temperature; settings: tags: Flag; purified from transfected HEK293T; label: 32P at 5' end of bottom strand; blunt 19 bp duplex
T1 chain: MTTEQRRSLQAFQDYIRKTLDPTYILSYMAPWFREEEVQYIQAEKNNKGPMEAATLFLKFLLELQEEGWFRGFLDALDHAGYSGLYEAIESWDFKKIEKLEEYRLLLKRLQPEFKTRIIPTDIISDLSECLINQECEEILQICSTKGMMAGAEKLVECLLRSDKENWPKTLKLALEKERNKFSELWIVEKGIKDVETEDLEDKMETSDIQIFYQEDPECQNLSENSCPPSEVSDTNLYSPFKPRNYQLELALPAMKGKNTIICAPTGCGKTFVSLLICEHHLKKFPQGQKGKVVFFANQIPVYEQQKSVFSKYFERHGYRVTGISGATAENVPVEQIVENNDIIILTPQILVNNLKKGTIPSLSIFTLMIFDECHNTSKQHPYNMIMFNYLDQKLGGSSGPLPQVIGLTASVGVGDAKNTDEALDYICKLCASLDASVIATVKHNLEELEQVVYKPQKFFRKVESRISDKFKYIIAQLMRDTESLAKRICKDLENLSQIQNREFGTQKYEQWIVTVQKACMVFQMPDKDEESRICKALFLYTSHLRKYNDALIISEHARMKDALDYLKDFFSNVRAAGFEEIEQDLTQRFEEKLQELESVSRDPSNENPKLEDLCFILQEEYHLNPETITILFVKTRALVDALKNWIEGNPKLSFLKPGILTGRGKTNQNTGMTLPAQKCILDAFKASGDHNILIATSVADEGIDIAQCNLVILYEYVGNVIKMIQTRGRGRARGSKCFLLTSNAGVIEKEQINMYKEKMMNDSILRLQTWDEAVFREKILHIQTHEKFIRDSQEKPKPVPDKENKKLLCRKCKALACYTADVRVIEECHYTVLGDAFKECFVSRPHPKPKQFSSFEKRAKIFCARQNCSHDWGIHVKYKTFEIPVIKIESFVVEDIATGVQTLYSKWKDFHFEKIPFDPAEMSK

RIG-I-K270A = target: T2, RIG-I-K270A (Homo sapiens, UniProt O95786 SEQ:1-925, K270A); experiment: EMSA; affinity similar to WT; 1.5 mM MgCl2, room temperature; settings: tags: Flag; purified from transfected HEK293T; label: 32P at 5' end of bottom strand; blunt 19 bp duplex
T2 sequence: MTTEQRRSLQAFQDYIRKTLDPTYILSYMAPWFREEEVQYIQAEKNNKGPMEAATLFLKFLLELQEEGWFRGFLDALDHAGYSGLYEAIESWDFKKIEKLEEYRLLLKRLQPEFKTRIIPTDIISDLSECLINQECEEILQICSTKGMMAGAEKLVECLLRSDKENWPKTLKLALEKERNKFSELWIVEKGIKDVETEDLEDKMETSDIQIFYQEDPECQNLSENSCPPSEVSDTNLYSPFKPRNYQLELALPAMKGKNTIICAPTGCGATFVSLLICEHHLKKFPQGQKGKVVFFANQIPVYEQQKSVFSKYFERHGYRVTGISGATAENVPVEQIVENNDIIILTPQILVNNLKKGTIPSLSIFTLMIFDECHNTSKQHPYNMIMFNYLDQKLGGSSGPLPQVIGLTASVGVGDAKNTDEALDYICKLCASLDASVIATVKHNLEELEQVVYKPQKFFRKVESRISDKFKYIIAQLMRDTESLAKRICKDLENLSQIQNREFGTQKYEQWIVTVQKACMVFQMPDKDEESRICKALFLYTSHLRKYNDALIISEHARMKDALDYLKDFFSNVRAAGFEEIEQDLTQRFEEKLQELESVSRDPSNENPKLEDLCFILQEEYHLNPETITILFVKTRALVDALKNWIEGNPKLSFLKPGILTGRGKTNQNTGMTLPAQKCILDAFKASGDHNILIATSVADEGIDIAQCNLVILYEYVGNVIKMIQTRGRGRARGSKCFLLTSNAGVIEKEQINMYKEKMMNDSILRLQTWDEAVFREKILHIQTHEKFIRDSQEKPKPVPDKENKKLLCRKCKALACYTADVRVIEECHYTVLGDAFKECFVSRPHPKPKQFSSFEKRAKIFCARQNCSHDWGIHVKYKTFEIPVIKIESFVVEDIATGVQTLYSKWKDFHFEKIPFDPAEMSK

RIG-I-N495D = target: T3, RIG-I-N495D (Homo sapiens, UniProt O95786 SEQ:1-925, N495D); experiment: EMSA; affinity comparable to WT; 1.5 mM MgCl2, room temperature; settings: tags: Flag; purified from transfected HEK293T; label: 32P at 5' end of bottom strand; blunt 19 bp duplex
T3 sequence: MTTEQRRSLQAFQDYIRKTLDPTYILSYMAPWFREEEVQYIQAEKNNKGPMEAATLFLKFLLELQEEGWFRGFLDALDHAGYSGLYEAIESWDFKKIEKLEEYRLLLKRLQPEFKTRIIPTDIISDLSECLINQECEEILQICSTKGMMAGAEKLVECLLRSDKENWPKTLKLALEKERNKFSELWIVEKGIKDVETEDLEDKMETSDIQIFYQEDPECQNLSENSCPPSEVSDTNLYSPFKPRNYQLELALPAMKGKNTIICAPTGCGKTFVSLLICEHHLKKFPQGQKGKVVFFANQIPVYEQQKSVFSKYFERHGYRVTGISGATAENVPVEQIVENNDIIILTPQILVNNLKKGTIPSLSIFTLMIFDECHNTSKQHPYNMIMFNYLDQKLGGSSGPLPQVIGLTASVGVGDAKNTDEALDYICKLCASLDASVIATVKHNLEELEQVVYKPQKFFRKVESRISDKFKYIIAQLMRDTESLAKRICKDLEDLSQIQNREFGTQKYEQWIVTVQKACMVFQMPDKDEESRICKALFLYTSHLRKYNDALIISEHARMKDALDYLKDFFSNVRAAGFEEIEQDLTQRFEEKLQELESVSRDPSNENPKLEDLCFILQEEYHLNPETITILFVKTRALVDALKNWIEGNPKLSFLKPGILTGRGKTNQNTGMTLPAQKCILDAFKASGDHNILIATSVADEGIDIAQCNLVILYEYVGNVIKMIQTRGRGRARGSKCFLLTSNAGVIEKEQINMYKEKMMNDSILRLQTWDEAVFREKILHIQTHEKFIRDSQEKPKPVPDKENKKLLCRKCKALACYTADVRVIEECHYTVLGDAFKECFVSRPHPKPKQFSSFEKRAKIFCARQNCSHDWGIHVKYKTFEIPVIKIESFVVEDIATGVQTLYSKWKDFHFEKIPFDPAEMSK

RIG-I wild-type [2] = target: T1, RIG-I wild-type; experiment: EMSA; forms the slowly migrating complex with dsRNA lacking 5'-triphosphate; 1.5 mM MgCl2, room temperature; settings: tags: Flag; purified from transfected HEK293T; label: 32P at 5' end of bottom strand; blunt 19 bp duplex lacking 5'-triphosphate

B1: 5'-ppp-dsRNA 19mer (dsRNA)
RNA 1: GCAUGCGACCUCUGUUUGA
RNA 2: UCAAACAGAGGUCGCAUGC
modifications: 5'-triphosphate on top strand
binding result (RIG-I wild-type [1]): binds
binding result (RIG-I-K270A): binds
binding result (RIG-I-N495D): binds

B2: control dsRNA 19mer (dsRNA)
RNA 1: GCAUGCGACCUCUGUUUGA
RNA 2: UCAAACAGAGGUCGCAUGC
binding result (RIG-I wild-type [2]): binds
